According to patent US11360100B2, “Methods and compositions useful in detecting proteins” (OREGON HEALTH & SCIENCE UNIVERSITY, priority 2016, dated 2022):

Assay: Membrane permeance of probe peptides in living cells
Type: cell-based
Experimental: The disclosed tag sets preferentially label cell surfaces and are membrane impermeant in living cells, which is of particular use in labeling cell-surface receptors (i.e., TfR1 and EGFR) and more particularly of use in monitoring trafficking and endocytosis.
The disclosed methods were tested in transfected human osteosarcoma cells (U-2 OS). A pDisplay vector was used to target CoilZ-EGFP and untagged EGFP to the cell surface. This construct includes a C-terminal fusion to the transmembrane domain of the platelet derived growth factor receptor. As expected, both CoilZ-EGFP and untagged EGFP localized to the cell surface, and green fluorescence was observed within 24 h of transfection. Then the cells were blocked with 6% BSA and 10% FBS for 30 minutes at 37° C. and then contacted with an AF647-conjugated CoilY probe (CoilY-AF647), 30 min at 4° C. Cells were fixed before imaging by confocal fluorescence microscopy. The probe peptides are membrane impermeant; only cell-surface EGFP was accessible to CoilY-AF647 for labeling. Colocalization of green fluorescent CoilZ-EGFP with CoilY-AF647 was observed.
VIP probe peptides are live cell impermeant. This makes them ideal for imaging and tracking receptor internalization. […]
VIPER labeling was compared to that of standard fluorescence labeling techniques, namely a fluorescent protein fusion to mCherry and antibody labeling.

## CoilR: coiled-coil peptide, SEQ ID NO: 1, designed from RR12EE345L (LEIRAAFLRQRNTALRTEVAELEQEVQRLENEVSQYETRYGPL)
  cell membrane permeance: cell-membrane impermeance
